Laboratory results from PMC9881219, “The NTPase activity of the double FYVE domain–containing protein 1 regulates lipid droplet metabolism” (The Journal of Biological Chemistry, 2022).
Numbering of substitutions follows the chain as printed. Names and notes keep the numbering of the source.

B1: full-length FLAG-DFCP1 (human double FYVE domain-containing protein 1) (natural protein, UniProt Q9HBF4 1-777, looked up)
chain: MSAQTSPAEKGLNPGLMCQESYACSGTDEAIFECDECCSLQCLRCEEELHRQERLRNHERIRLKPGHVPYCDLCKGLSGHLPGVRQRAIVRCQTCKINLCLECQKRTHSGGNKRRHPVTVYNVSNLQESLEAEEMDEETKRKKMTEKVVSFLLVDENEEIQVTNEEDFIRKLDCKPDQHLKVVSIFGNTGDGKSHTLNHTFFYGREVFKTSPTQESCTVGVWAAYDPVHKVAVIDTEGLLGATVNLSQRTRLLLKVLAISDLVIYRTHADRLHNDLFKFLGDASEAYLKHFTKELKATTARCGLDVPLSTLGPAVIIFHETVHTQLLGSDHPSEVPEKLIQDRFRKLGRFPEAFSSIHYKGTRTYNPPTDFSGLRRALEQLLENNTTRSPRHPGVIFKALKALSDRFSGEIPDDQMAHSSFFPDEYFTCSSLCLSCGVGCKKSMNHGKEGVPHEAKSRCRYSHQYDNRVYTCKACYERGEEVSVVPKTSASTDSPWMGLAKYAWSGYVIECPNCGVVYRSRQYWFGNQDPVDTVVRTEIVHVWPGTDGFLKDNNNAAQRLLDGMNFMAQSVSELSLGPTKAVTSWLTDQIAPAYWRPNSQILSCNKCATSFKDNDTKHHCRACGEGFCDSCSSKTRPVPERGWGPAPVRVCDNCYEARNVQLAVTEAQVDDEGGTLIARKVGEAVQNTLGAVVTAIDIPLGLVKDAARPAYWVPDHEILHCHNCRKEFSIKLSKHHCRACGQGFCDECSHDRRAVPSRGWDHPVRVCFNCNKKPGDL
notes: Human DFCP1 (ZFYVE1), UniProt Q9HBF4, full length; A TEV site lies between FLAG and DFCP1; no cleavage is described for this protein; The domain diagram gives 1-777 for the full-length protein; also called FL DFCP1; FL hsDFCP1; not shown: FLAG, N-terminal, kept
B2: MBP-DFCP1 (112-415), WT NTPase domain of mouse DFCP1 (domain or fragment, UniProt Q810J8 112-415, looked up)
chain: NKRRHPITVYLVSKVQESLEGEEMDEETKRKKMTERVVSFLLVDENEEIQVTNEEDFIRKLDCKPDQHLKVVSIFGNTGDGKSHTLNHTFFYGREVFKTSPAQESCTVGVWAAYDPVHKVAVIDTEGLLGATVNLSQRTRLLLKVLAISDLVIYRTHADRLHNDLFKFLGDASEAYLKHFTKELKATTARCGLDVPLSTLGPAVIIFHETVHTQLLGSDHPSEAPEKLIQDRFRKLGRFPEAFSSIHYKGTRTYNPPTDFSGLRRALEQLLENNTTRSPRHPGVIFKALKALSDRFSGEIPDDQ
notes: Mouse DFCP1, UniProt Q810J8, residues 112-415 (NTPase domain, 98.8% identical to human DFCP1), in pMal-c2e; MBP was removed with TEV protease only after the SEC step, for the nucleotide hydrolysis assays; also called WT (112-415); DFCP1 NTPase domain; source: E. coli Rosetta (DE3), purified (amylose resin, Superdex 200 SEC); not shown: MBP, N-terminal, kept
B3: MBP-DFCP1 (112-415) K193A/R266Q (domain or fragment, mouse, UniProt Q810J8 112-415, looked up)
chain: B2 chain with K82A, R155Q
notes: Mouse DFCP1, UniProt Q810J8, residues 112-415 (NTPase domain) with both K193A and R266Q, in pMal-c2e; also called KARQ; KA/RQ; source: E. coli Rosetta (DE3), purified (amylose resin, Superdex 200 SEC); not shown: MBP, N-terminal, kept
B4: MBP-DFCP1 (112-415) K193A (domain or fragment, mouse, UniProt Q810J8 112-415, looked up)
chain: B2 chain with K82A
notes: Mouse DFCP1, UniProt Q810J8, residues 112-415 (NTPase domain) with K193A, in pMal-c2e; also called KA; K193A NTPase domain; source: E. coli Rosetta (DE3), purified (amylose resin, Superdex 200 SEC); not shown: MBP, N-terminal, kept
B5: MBP-DFCP1 (112-415) R266Q (domain or fragment, mouse, UniProt Q810J8 112-415, looked up)
chain: B2 chain with R155Q
notes: Mouse DFCP1, UniProt Q810J8, residues 112-415 (NTPase domain) with R266Q, in pMal-c2e; R266Q is a cancer-related mutation found in human patients (endometrial and colorectal cancers); Here it was introduced into the mouse NTPase domain by mutagenesis; also called RQ; RQm/RQd (monomeric/dimeric states); source: E. coli Rosetta (DE3), purified (amylose resin, Superdex 200 SEC); not shown: MBP, …

Tests used:
[1] = molecular target: the molecule itself; assay: SEC; full-length FLAG-DFCP1 on Superose 6; 25 mM Tris pH 8, 150 mM NaCl, 1 mM DTT, 1 mM MgCl2; monomer and dimer peaks
[2] = molecular target: the molecule itself; assay: SEC; MBP-DFCP1 (112-415) constructs on HiLoad 26/600 Superdex 200 pg; 25 mM Tris pH 8.0, 150 mM NaCl, 1 mM MgCl2, 1 mM DTT; monomer and dimer peaks

Protein	binding result [1]	binding result [2]
B1	binds	
B2		binds
B3		binds
B4		binds
B5		binds
